One molecule from patent US5928915A, “CHO cell sialidase by recombinant DNA technology” (Genentech, Inc., priority 1997, dated 1999) can be followed below.

The target in the data set is T1, CHO cell sialidase (Cricetulus griseus, UniProt Q64393).
T1 construct: The sialidase described was purified from the cell culture fluid of a single production cell line (CHO 14.16); endogenous in cells; host or cells: CHO 14.16 cells (purified from the cell culture fluid)
The data set is described as follows: Sialidase kinetic constants with soluble sialylglycoconjugate substrates. Format: biochemical, Chinese hamster. The protocol:
Fluorescent sialidase assays: Standard assay conditions for monitoring the enzyme activity during purification using the fluorescent substrate analog are: 1.3 mM 4-MUNeu5Ac, 50 mM phosphate buffer, pH 6.8, 0.3 mg bovine serum albumin and varying amounts of enzyme in a total volume of 30 μl. After addition of enzyme the samples are incubated at 37° C. in a shaking water bath for 5 minutes. The reaction is terminated and the fluorescence of the liberated umbelliferone is enhanced by the addition of 2 ml of 80 mM glycine-carbonate buffer, pH 9.7. Quantification of the product is made by measuring the fluorescence of the samples with excitation at 365 nm and emission at 450 nm using a standard of 4-methyl umbelliferone. A unit of enzyme activity is defined as a μmol/min of sialic acid liberated.
Sialidase assays with natural substrates: When natural substrates are tested with the purified enzyme, the amount of released sialic acid is measured using the thiobarbituric acid assay as modified by Uchida [Uchida et al. J. Biochem., 82:1425 (1977)] using sialic acid as standard. […] All samples are cleared by centrifugation (1,000×G, 10 min) prior to determining the absorbance at 540 nm.
Enzyme kinetic parameters: Assay conditions (time and added enzyme) are modified for each substrate so that initial reaction rates are measured. […]

T1 sequence (Q64393 whole entry): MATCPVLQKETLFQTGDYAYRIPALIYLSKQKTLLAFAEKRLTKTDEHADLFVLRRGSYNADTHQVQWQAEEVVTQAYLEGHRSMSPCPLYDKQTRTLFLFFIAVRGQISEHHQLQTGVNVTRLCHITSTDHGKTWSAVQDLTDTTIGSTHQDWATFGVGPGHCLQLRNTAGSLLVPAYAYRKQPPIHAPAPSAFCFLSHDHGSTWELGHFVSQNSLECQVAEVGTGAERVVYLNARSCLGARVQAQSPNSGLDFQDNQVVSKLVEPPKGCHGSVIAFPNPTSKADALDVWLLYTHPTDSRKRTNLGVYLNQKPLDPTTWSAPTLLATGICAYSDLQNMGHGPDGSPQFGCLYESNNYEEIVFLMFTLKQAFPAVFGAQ

B1: rDeoxyribonuclease 1: encoded by a human-derived nucleotide sequence, was expressed in Chinese hamster ovary cells (protein, UniProt P24855 23-282, looked up)
Deoxyribonuclease-1: LKIAAFNIQTFGETKMSNATLVSYIVQILSRYDIALVQEVRDSHLTAVGKLLDNLNQDAPDTYHYVVSEPLGRNSYKERYLFVYRPDQVSAVDSYYYDDGCEPCGNDTFNREPAIVRFFSRFTEVREFAIVPLHAAPGDAVAEIDALYDVYLDVQEKWGLEDVMLMGDFNAGCSYVRPSQWSSIRLWTSPTFQWLIPDSADTTATPTHCAYDRIVVAGMLLRGAVVPDSALPFNFQAAYGLSDQLAQAISDHYPVEVMLK
As for B1, the Vmax (apparent, standard assay conditions, average of duplicates, relative error about 10%) stood at 12 µmol/min/mg. Where the note is “transferrin versus deoxyribonuclease I”, the “Km values compared (in words)” value is recorded as “nearly identical”.
